According to article PMC4963855:

Target: mouse recombinant TNF (mouse) (UniProt P06804)
Sequence of UniProt P06804 (P06804 80-235): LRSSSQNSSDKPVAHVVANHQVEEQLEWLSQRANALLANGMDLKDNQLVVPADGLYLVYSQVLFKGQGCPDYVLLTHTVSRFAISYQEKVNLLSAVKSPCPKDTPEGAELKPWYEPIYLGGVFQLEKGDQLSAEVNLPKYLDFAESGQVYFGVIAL

BmooMP-alpha-I, zinc metalloprotease of class P-I from Bothrops moojeni snake venom (enzyme)
TNF level detected by sandwich ELISA after preincubation of recombinant TNF (1000 pg/mL) with 12 ug/mL BmooMP-alpha-I for 45 min at 37 °C (degradation of TNF): 53.4 % decrease | TNF level detected by sandwich ELISA after preincubation of recombinant TNF with BmooMP-alpha-I inactivated with 10 mM Na2EDTA (BmooMP-alpha-I(i)): 80%
